Laboratory results as given in the supplement of paper PMC7125110.
± gives the standard error. Fewer inactive variants are shown than the library holds.

B1: glmS ribozyme (parent)
chain: AUAAAAGCGCCAGAACUACAGAAAUGUAGUUGACGAGGAGGAGGUUUAUCGAAUUUUCGGCGGAUGCCUCCAAA

Legend:
Details in all cases: with glucosamine-6-phosphate
glucosamine-6-phosphate [1] = variants of: B1; test: self-cleavage kobs at 40 uM GlcN6P; higher = faster cleavage; RNA array
Outline: (§1)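 The measurements used barcoded ribozyme variants on sequenced MiSeq chips, transcribed in situ by E. coli RNA polymerase and tracked at 37 °C with a hybridised Cy3 probe. Glucosamine-6-phosphate, 40 μM to 10 mM in HEPES/KCl/Mg(OAc)2 buffer, was flowed in while tiles were imaged over ~14 h. Baseline-normalised signals, also normalised to non-cleaving reference variants, gave per-tile medians that were fit to one- or two-exponential decays for kobs. kcat and KM resulted from weighted Michaelis–Menten fits across concentrations.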

glucosamine-6-phosphate [2] = variants of: B1; test: self-cleavage kobs at 160 uM GlcN6P; higher = faster cleavage; RNA array
Outline: as §1

glucosamine-6-phosphate [3] = variants of: B1; test: self-cleavage kobs at 640 uM GlcN6P; higher = faster cleavage; RNA array
Outline: as §1

glucosamine-6-phosphate [4] = variants of: B1; test: self-cleavage kobs at 2500 uM GlcN6P; higher = faster cleavage; RNA array
Outline: as §1

glucosamine-6-phosphate [5] = variants of: B1; test: self-cleavage kobs at 10000 uM GlcN6P; higher = faster cleavage; RNA array
Outline: as §1

Row | Variant | self-cleavage kobs at 40 uM GlcN6P (glucosamine-6-phosphate [1]) [s⁻¹] | self-cleavage kobs at 160 uM GlcN6P (glucosamine-6-phosphate [2]) [s⁻¹] | self-cleavage kobs at 640 uM GlcN6P (glucosamine-6-phosphate [3]) [s⁻¹] | self-cleavage kobs at 2500 uM GlcN6P (glucosamine-6-phosphate [4]) [s⁻¹] | self-cleavage kobs at 10000 uM GlcN6P (glucosamine-6-phosphate [5]) [s⁻¹]
1 | A15C G32U A33C | < 1e-05 | < 1e-05 | < 1e-05 | < 1e-05 | < 1e-05
2 | C50G G63A C68A U69C | 0.000106 ± 2.3e-05 | – | – | – | 0.000147 ± 2.8e-05
3 | G9A U31G | < 1e-05 | < 1e-05 | – | < 1e-05 | –
4 | G13U U45G | < 1e-05 | – | – | 8.28e-05 ± 2e-05 | 0.000133 ± 1.8e-05
5 | C16A C58U | < 1e-05 | < 1e-05 | – | – | 3.14e-05 ± 1.3e-05
6 | G9A A14G U30A | < 1e-05 | < 1e-05 | < 1e-05 | – | 4.06e-05 ± 1.5e-05
7 | U45G G59C | < 1e-05 | < 1e-05 | < 1e-05 | < 1e-05 | –
8 | A6C U31A | < 1e-05 | – | < 1e-05 | – | 3.99e-05 ± 1.3e-05
9 | G32U U69G | 7.55e-05 ± 1.7e-05 | – | 0.000345 ± 8.4e-05 | – | 9.29e-05 ± 1.7e-05
10 | C10U G29C G37A A53C | < 1e-05 | – | – | – | –
11 | G29U U30A U31G A53U | < 1e-05 | – | 7.01e-05 ± 2.6e-05 | – | –
12 | G32A G63U | < 1e-05 | < 1e-05 | – | < 1e-05 | < 1e-05
13 | A6G G51U U57C | < 1e-05 | – | – | – | < 1e-05
14 | U55G C70U | 0.0011 ± 0.00013 | 0.00151 ± 0.00031 | 0.0043 ± 0.0011 | – | –
15 | C10A G37C C68U | < 1e-05 | – | – | – | –
16 | C11A A14C A36G C50U C58U C61G | 0.000206 ± 8.1e-05 | – | – | – | –
17 | A14U A39G G44A C50A C71A | < 1e-05 | – | – | < 1e-05 | < 1e-05
18 | U31C G60A | < 1e-05 | – | < 1e-05 | – | < 1e-05
19 | A53U U55A C67G | 0.000155 ± 4.4e-05 | – | – | – | 0.00212 ± 0.00067
20 | A6G A33C | < 1e-05 | < 1e-05 | < 1e-05 | < 1e-05 | < 1e-05
21 | U46G C67G C68G | 2.82e-05 ± 1.4e-05 | – | – | 7.29e-05 ± 2.5e-05 | –
22 | A42U A53G U56C C71U | < 1e-05 | – | – | – | –
23 | C10U C34A C50G U65A | 8.28e-05 ± 3e-05 | – | – | 6.81e-05 ± 2.9e-05 | 0.000129 ± 2.8e-05
